In the Human Domainome abundance scans (Beltran et al. 2025):
± gives the uncertainty stated by the source.

B1: F-BAR and double SH3 domains protein 1, residues 467 to 528; numbered along this chain, Q86WN1 (parent)
chain: RALPCPAHVVFRYQAGREDELTITEGEWLEVIEEGDADEWVKARNQHGEVGFVPERYLNFPD

Variants of: B1
Assay: abundance fitness (aPCA) (normalised: wild type 0, dead -1); higher = more abundant; growth selection in yeast, the domain comes from the species named
Settings: Homo sapiens

Variant | abundance fitness
V53S | -0.981 ± 0.097
V53R | -0.662 ± 0.065
V53P | -0.922 ± 0.18
V53W | -1.03 ± 0.16
V53Y | -0.466 ± 0.084
V53T | -0.868 ± 0.13
V53N | -0.829 ± 0.24
V53Q | -0.624 ± 0.1
P61Y | -0.303 ± 0.17
P61L | 0.004 ± 0.043
P61W | -0.174 ± 0.058
P61S | 0.091 ± 0.052
P61V | 0.001 ± 0.073
P61M | -0.088 ± 0.076
P61G | 0.042 ± 0.067
P61Q | 0.081 ± 0.088
P61N | -0.042 ± 0.096
P61K | 0.026 ± 0.11
P61E | -0.111 ± 0.1
P61R | -0.09 ± 0.039
P61H | -0.249 ± 0.086
P61D | -0.007 ± 0.099
P61A | -0.03 ± 0.065

Variant | abundance fitness
P61I | 0.091 ± 0.12
L58I | -0.088 ± 0.08
L58H | -1.12 ± 0.32
L58T | -0.602 ± 0.084
L58N | -1.02 ± 0.46
L58E | -0.951 ± 0.18
L58Q | -0.819 ± 0.14
L58W | -0.829 ± 0.07
L58K | -1.01 ± 0.29
L58M | -0.574 ± 0.11
L58P | -0.946 ± 0.18
L58G | -0.73 ± 0.063
L58S | -0.65 ± 0.059
L58A | -0.743 ± 0.085
L58C | -0.499 ± 0.078
L58F | -0.902 ± 0.14
L58V | -0.267 ± 0.062
L58R | -0.859 ± 0.061
P54F | -0.287 ± 0.075
P54Q | -0.117 ± 0.063
P54T | -0.831 ± 0.11
P54K | -0.075 ± 0.1
P54W | -0.117 ± 0.063

Variant | abundance fitness
P54M | -0.009 ± 0.053
P54E | -0.509 ± 0.11
P54L | -0.016 ± 0.04
P54I | -0.426 ± 0.15
P54A | -0.2 ± 0.073
P54D | -0.539 ± 0.16
P54H | -0.017 ± 0.077
P54C | -0.001 ± 0.071
P54S | -0.126 ± 0.059
P54G | -0.299 ± 0.059
P54N | 0.198 ± 0.13
P54V | -0.638 ± 0.09
P54Y | -0.14 ± 0.087
P54R | 0.012 ± 0.042
Y57T | 0.07 ± 0.052
Y57W | -0.281 ± 0.11
Y57V | 0.103 ± 0.039
Y57I | -0.309 ± 0.09
Y57Q | -0.292 ± 0.089
Y57M | -0.041 ± 0.063
Y57D | -0.161 ± 0.092
Y57L | -0.023 ± 0.037
Y57S | 0.123 ± 0.058

Variant | abundance fitness
Y57G | -0.44 ± 0.065
Y57P | -0.613 ± 0.1
Y57R | -0.373 ± 0.071
Y57H | 0.208 ± 0.086
Y57F | -0.006 ± 0.06
Y57E | -0.595 ± 0.11
Y57A | 0.102 ± 0.048
Y57N | 0.109 ± 0.083
Y57K | -0.231 ± 0.081
N59S | -0.036 ± 0.042
N59I | -0.079 ± 0.075
N59P | -0.977 ± 0.16
N59M | -0.117 ± 0.057
N59C | -0.036 ± 0.093
N59A | 0.054 ± 0.06
N59K | -0.005 ± 0.071
N59V | -0.078 ± 0.046
N59L | -0.159 ± 0.035
N59T | 0.006 ± 0.058
N59E | 0.028 ± 0.06
N59F | -0.091 ± 0.075
N59W | -0.242 ± 0.053
N59R | 0.066 ± 0.043

Variant | abundance fitness
N59G | -0.096 ± 0.054
N59Q | 0.018 ± 0.053
N59H | 0.003 ± 0.086
E55Q | -0.138 ± 0.069
E55V | 0.054 ± 0.05
E55W | -0.151 ± 0.056
E55D | -0.057 ± 0.11
E55S | -0.069 ± 0.05
E55N | -0.055 ± 0.091
E55Y | -0.196 ± 0.081
E55A | -0.042 ± 0.058
E55F | -0.165 ± 0.058
E55R | 0.038 ± 0.042
E55P | -0.123 ± 0.088
E55H | -0.133 ± 0.1
E55K | -0.02 ± 0.079
E55G | -0.132 ± 0.055
E55M | 0.035 ± 0.049
E55T | 0.026 ± 0.054
E55C | -0.02 ± 0.061
E55L | 0.059 ± 0.04
